# Measurements taken from patent US9504755B2, “Multi-arm polymeric alkanoate conjugates” (Nektar Therapeutics, priority 2008, dated 2016).
# Values joined by “and” are separate entries in the source; they are usually repeats but may differ in a detail not shown here. Equal values may be shown once. Marks after values point to notes of the source that are not given here.
# Tests used:
# [1] = tested on: LoVo tumors; assay: Anti-tumor activity in LoVo colorectal mouse xenograft model; format: in vivo
# Experimental: (§1) H460, LS174T and LoVo tumors were established in female athymic nude mice. Groups of 10 mice received a total of three single doses of 4-ARM-PEG20K-BA-DOC or docetaxel administered every 7 days (q7d×3) at several doses up to a maximum tolerated dose (MTD). Control groups received no treatment after tumor implant. Animals were weighed daily for the first five days and twice weekly thereafter. Tumor volumes were measured twice weekly after the first drug injection.
# (§2) Anti-tumor activity was measured as changes in tumor volume, time to reach endpoint, and complete or partial tumor regression.
# (§3) Treatment outcome was evaluated by Tumor Growth Delay (TGD), which is defined as the increase in median time to endpoint in a treatment group compared to the control group. Here it is expressed as % TGD, as a percentage to the median time to endpoint of the control group.
# (§4) A tumor whose volume was reduced to 50% or less for three consecutive measurements compared to its volume on Day 1 was considered to be in partial regression. Complete regression was defined as volume […] 13.5 mm^3 for three consecutive measurements.
# (§5) Acceptable toxicity was defined as a group mean body weight (BW) loss of less than 20% during the study and not more than one treatment-related death among ten treated animals.
# [2] = Pharmacokinetics after IV infusion in Sprague-Dawley rats; format: in vivo, rat
# Experimental: The objective of this study was to assess the pharmacokinetics and excretion of docetaxel and 4-ARM-PEG20K-BA-docetaxel after intravenous infusion to rats.
# Pharmacokinetics of 4-ARM-PEG20K-BA-docetaxel and docetaxel were evaluated in male rats (15 rats/dose level) dosed with 5, 10, and 15 mg/kg (30, 60, 90 mg/m^2) 4-ARM-PEG20K-BA-docetaxel or 5 mg/kg (30 mg/m^2) docetaxel. 4-ARM-PEG20K-BA-docetaxel and docetaxel were administered via a femoral vein catheter as 30-min intravenous infusions at 4 mL/kg. Blood samples (n=15 timepoints with n=5 samples/dose level/timepoint) were obtained by jugular venipuncture between pre-dose and 144 hours post-dose.
# [3] = Population pharmacokinetic modeling of terminal disposition rate constant, dogs; format: in vivo; conditions: dog
# Excerpt: (§6) To further evaluate the sustained plasma docetaxel terminal half-life, a population pharmacokinetic approach was employed.
# (§7) While determining the pharmacokinetics of docetaxel after administration of docetaxel or 4-ARM-PEG20K-BA-docetaxel, it was observed that reliable values for the terminal disposition rate constant λz could not be obtained for the majority of animals secondary to fluctuation of plasma docetaxel concentrations between adjacent sampling times and/or the occurrence of incomplete concentration-time profiles due to concentrations being near or at the lower limit of quantification (1 ng/mL). In addition, in Example 14, rats were sampled in groups of 15 using alternating, overlapping sparse sampling schemes across groups to encompass the total duration of sampling. All of these factors contributed to the occurrence of sparse data within a given animal's terminal concentration-time profile.
# (§8) To further investigate and compare docetaxel terminal disposition patterns between docetaxel and 4-ARM-PEG20K-BA-docetaxel, population pharmacokinetic methods were applied to data from rats (Example 14) and dogs (Example 15 and in one additional study). This allowed estimation of population λz values and corresponding half-life values for each treatment group in the presence of incomplete data within individual animals. Specifically, data from all animals within a treatment group and all treatment groups were fit with a nonlinear mixed effect pharmacokinetic model using the program Monolix. Plasma docetaxel concentrations following docetaxel or 4-ARM-PEG20K-BA-docetaxel administration, and plasma 4-ARM-PEG20K-BA-docetaxel concentrations following 4-ARM-PEG20K-BA-docetaxel administration were fit with a model specifying zero-order input of the dose over a defined infusion period and biexponential disposition (Monolix PK Model 26). Docetaxel concentration-time data after 4-ARM-PEG20K-BA-docetaxel were fit with a model having first order input, to reflect metabolism of 4-ARM-PEG20K-BA-docetaxel to the active docetaxel metabolite, and biexponential disposition (Monolix PK Model 31). The parameter of interest for this investigation was the population terminal disposition rate constant, λz to supplement the results described above.
# Dogs in the additional study received 7 mg/kg doses of 4-ARM-PEG20K-BA-docetaxel on Days 1 and 22 with serial blood sampling after each dose for determination of plasma 4-ARM-PEG20K-BA-docetaxel and docetaxel concentrations.
# [4] = Population pharmacokinetic modeling of terminal disposition rate constant, rats; format: in vivo; conditions: rat
# Excerpt: as §6, §7, §8
# [5] = tested on: LS174T tumors; assay: Anti-tumor activity in LS174T colorectal mouse xenograft model; format: in vivo
# Experimental: as §1, §2, §3, §4, §5
# [6] = 16.9 mg/kg (50.7 mg/m^2), q7d×3
# [7] = 22.5 mg/kg (67.5 mg/m^2), q7d×3
# [8] = 40 mg/kg (120 mg/m^2), q7d×3 (exceeded MTD)
# [9] = male rats, average over 5, 10, 15 mg/kg
# [10] = male rats, single IV dose 5 mg/kg
# [11] = male rats, single IV dose 10 mg/kg
# [12] = male rats, single IV dose 15 mg/kg
# [13] = additional study, conjugate 7 mg/kg on Days 1 and 22
# [14] = docetaxel 0.75 mg/kg or conjugate 0.72, 2, 4 mg/kg
# [15] = docetaxel 5 mg/kg or conjugate 5, 10, 15 mg/kg
# [16] = 30 mg/kg (90 mg/m^2), q7d×3 (MTD of docetaxel)
# [17] = 40 mg/kg (120 mg/m^2), q7d×3 (MTD of 4-ARM-PEG20K-BA-DOC)
substance,measurement,setting,value
4-ARM-PEG20K-Butanoate-Linked Docetaxel Conjugate [4-ARM-PEG20K-BA-DOC],BW Loss (%),[1]; [6],7.0%
same,Day of BW Nadir,[1]; [6],21
same,No. Surviving/No. Treated Mice,[1]; [6],10/10
same,PR (partial regressions),[1]; [6],0
same,TGD (%),[1]; [6],64** %
same,BW Loss (%),[1]; [7],11.0%
same,Day of BW Nadir,[1]; [7],24
same,No. Surviving/No. Treated Mice,[1]; [7],10/10
same,PR (partial regressions),[1]; [7],0
same,TGD (%),[1]; [7],50* %
same,BW Loss (%),"[1]; 30 mg/kg (90 mg/m^2), q7d×3",16.2%
same,Day of BW Nadir,"[1]; 30 mg/kg (90 mg/m^2), q7d×3",24
same,No. Surviving/No. Treated Mice,"[1]; 30 mg/kg (90 mg/m^2), q7d×3",10/10
same,PR (partial regressions),"[1]; 30 mg/kg (90 mg/m^2), q7d×3",0
same,TGD (%),"[1]; 30 mg/kg (90 mg/m^2), q7d×3 (MTD for both agents)",128%
same,Day of BW Nadir,"[1]; 40 mg/kg (120 mg/m^2), q7d×3",24
same,No. Surviving/No. Treated Mice,"[1]; 40 mg/kg (120 mg/m^2), q7d×3",10/10
same,BW Loss (%),[1]; [8],22.6%
same,TGD (%),[1]; [8],148% and 148 ^1%
same,"CL, analyte conjugate, average (±SD)",[2]; [9],0.33 mL/min/kg
same,"Vss, analyte conjugate, average (±SD)",[2]; [9],0.61 ± 0.17 L/kg
same,"AUCinf, analyte conjugate",[2]; [10],250.374 µg·h/mL
same,"AUClast, analyte conjugate",[2]; [10],226.203 µg·h/mL
same,"AUClast, analyte docetaxel",[2]; [10],1.711 µg·h/mL
same,"CL, analyte conjugate",[2]; [10],0.33 mL/min/kg
same,"Cmax, analyte conjugate",[2]; [10],40079 ng/mL
same,"Cmax, analyte docetaxel",[2]; [10],122 ng/mL
same,"T1/2, analyte conjugate",[2]; [10],73 h
same,"Tmax, analyte conjugate",[2]; [10],0.5 h
same,"Tmax, analyte docetaxel",[2]; [10],0.5 h
same,"Vss, analyte conjugate",[2]; [10],0.8 L/kg
same,"AUCinf, analyte conjugate",[2]; [11],437.912 µg·h/mL
same,"AUClast, analyte conjugate",[2]; [11],419.132 µg·h/mL
same,"AUClast, analyte docetaxel",[2]; [11],3.003 µg·h/mL
same,"CL, analyte conjugate",[2]; [11],0.38 mL/min/kg
same,"Cmax, analyte conjugate",[2]; [11],70795 ng/mL
same,"Cmax, analyte docetaxel",[2]; [11],176 ng/mL
same,"T1/2, analyte conjugate",[2]; [11],59 h
same,"Tmax, analyte conjugate",[2]; [11],0.5 h
same,"Tmax, analyte docetaxel",[2]; [11],2.0 h
same,"Vss, analyte conjugate",[2]; [11],0.55 L/kg
same,"AUCinf, analyte conjugate",[2]; [12],895.159 µg·h/mL
same,"AUClast, analyte conjugate",[2]; [12],847.993 µg·h/mL
same,"AUClast, analyte docetaxel",[2]; [12],3.743 µg·h/mL
same,"CL, analyte conjugate",[2]; [12],0.28 mL/min/kg
same,"Cmax, analyte conjugate",[2]; [12],138296 ng/mL
same,"Cmax, analyte docetaxel",[2]; [12],273 ng/mL
same,"T1/2, analyte conjugate",[2]; [12],63 h
same,"Tmax, analyte conjugate",[2]; [12],0.5 h
same,"Tmax, analyte docetaxel",[2]; [12],1.0 h
same,"Vss, analyte conjugate",[2]; [12],0.47 L/kg
same,plasma docetaxel AUC compared with docetaxel,"[2]; rats, equivalent doses (5 mg/kg)",similar
same,"plasma docetaxel half-life, fold longer than after docetaxel",[3],about 8 fold
same,"Mean (SE) λz, plasma conjugate",[3]; [13],0.0141 (0.00041) h^−1
same,"Mean (SE) λz, plasma docetaxel",[3]; [13],0.00627 (0.00086) hr^−1
same,"t½λz, plasma docetaxel",[3]; [13],110 h
same,"Mean (SE) λz, plasma docetaxel",[3]; [14],0.00349 (0.0021) hr^−1
same,"t½λz, plasma docetaxel",[3]; [14],199 h
same,"plasma docetaxel half-life, fold longer than after docetaxel",[4],about 4 fold
same,"Mean (SE) λz, plasma docetaxel",[4]; [15],0.00412 (0.001) hr^−1
same,"t½λz, plasma docetaxel",[4]; [15],168 h
same,BW Loss (%),[5]; [6],12.4%
same,Day of BW Nadir,[5]; [6],23
same,No. Surviving/No. Treated Mice,[5]; [6],9/10
same,PR (partial regressions),[5]; [6],0
same,TGD (%),[5]; [6],126* %
same,BW Loss (%),[5]; [7],11.1%
same,Day of BW Nadir,[5]; [7],23
same,No. Surviving/No. Treated Mice,[5]; [7],10/10
same,PR (partial regressions),[5]; [7],0
same,TGD (%),[5]; [7],169* %
same,Day of BW Nadir,"[5]; 30 mg/kg (90 mg/m^2), q7d×3",23
same,No. Surviving/No. Treated Mice,"[5]; 30 mg/kg (90 mg/m^2), q7d×3",9/10
same,BW Loss (%),[5]; [16],17.9%
same,TGD (%),[5]; [16],250%
same,Day of BW Nadir,"[5]; 40 mg/kg (120 mg/m^2), q7d×3",23
same,No. Surviving/No. Treated Mice,"[5]; 40 mg/kg (120 mg/m^2), q7d×3",10/10
same,BW Loss (%),[5]; [17],18.8%
same,TGD (%),[5]; [17],266%
same,% TGD fold greater than for docetaxel,[5]; each at MTD,1.6 fold
